Laboratory results published in paper PMC3649978.

Target: EB1 (competitive binding assay, source not named) (UniProt Q61166)
Experiment: competitive binding assay; data not shown; p104_(554–593) as competitor of EB1 binding to recombinant p104

Chain of UniProt Q61166 (Q61166 whole entry): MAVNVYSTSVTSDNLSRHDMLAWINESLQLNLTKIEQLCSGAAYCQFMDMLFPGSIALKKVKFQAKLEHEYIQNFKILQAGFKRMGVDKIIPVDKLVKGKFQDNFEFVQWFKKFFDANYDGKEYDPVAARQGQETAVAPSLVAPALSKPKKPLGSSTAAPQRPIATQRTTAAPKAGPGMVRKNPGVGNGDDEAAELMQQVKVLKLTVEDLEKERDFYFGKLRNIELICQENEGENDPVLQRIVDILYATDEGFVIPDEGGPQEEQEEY

With “p104_(554–593) (soluble 40 aa fragment of p104; recombinant form GFP-p104_(554–593)) (domain or fragment)” as the substance, how does the molar excess for 50% inhibition (fold molar excess) read?
The molar excess for 50% inhibition (fold molar excess) was 3.
